# Source: PMC8544800 (Biochemistry, 2020)
# Where a chain is given by its changes, count along the chain named.
# B1: PCGF1 RAWUL (150–259)/BCOR PUFD dimer (complex, human)
# chain 1: LPFSSFDHSKAHYYRYDEQLNLCLERLSSGKDKNKSVLQNKYVRCSVRAEVRHLRRVLCHRLMLNPQHVQLLFDNEVLPDHMTMKQIWLSRWFGKPSPLLLQYSVKEKRR
# chain 2: SDVFEFEFSETPLLPCYNIQVSVAQGPRNWLLLSDVLKKLKMSSRIFRCNFPNVEIVTIAEAEFYRQVSASLLFSCSKDLEAFNPESKELLDLVEFTNEIQTLLGSSVEWLHPSD
# B2: PCGF1 RAWUL (150–259)/BCOR 1448–1748 dimer (complex, human)
# chain 1: B1 chain 1
# chain 2: PMPPEARRLIVNKNAGETLLQRAARLGYEEVVLYCLENKICDVNHRDNAGYCALHEACARGWLNIVRHLLEYGADVNCSAQDGTRPLHDAVENDHLEIVRLLLSYGADPTLATYSGRTIMKMTHSELMEKFLTDYLNDLQGRNDDDASGTWDFYGSSVCEPDDESGYDVLANPPGPEDQDDDDDAYSDVFEFEFSETPLLPCYNIQVSVAQGPRNWLLLSDVLKKLKMSSRIFRCNFPNVEIVTIAEAEFYRQVSASLLFSCSKDLEAFNPESKELLDLVEFTNEIQTLLGSSVEWLHPSD
# B3: PCGF1 RAWUL (150–259)/BCOR 1593–1748 dimer (complex, human)
# chain 1: B1 chain 1
# chain 2: DASGTWDFYGSSVCEPDDESGYDVLANPPGPEDQDDDDDAYSDVFEFEFSETPLLPCYNIQVSVAQGPRNWLLLSDVLKKLKMSSRIFRCNFPNVEIVTIAEAEFYRQVSASLLFSCSKDLEAFNPESKELLDLVEFTNEIQTLLGSSVEWLHPSD
# B4: PCGF1 RAWUL (150–259)/BCORL1 PUFD dimer (complex, human)
# chain 1: B1 chain 1
# chain 2: DDFMFELSDKPLLPCYNLQVSVSRGPCNWFLFSDVLKRLKLSSRIFQARFPHFEITTMPKAEFYRQVASSQLLTPAERPGGLDDRSPPGSSETVELVRYEPDLLRLLGSEVEFQSCNS
# B5: PCGF1 RAWUL (150–259)/BCOR PUFD Leu1705Gln dimer (complex, human)
# chain 1: B1 chain 1
# chain 2: B1 chain 2 with L72Q
# Target: hexahistidine (6His)-tagged KDM2B/SKP1 dimer (human, UniProt Q8NHM5 1059-1336; P63208 1-163)
# Sequence (Q8NHM5 1059-1336, chain 1 of 2): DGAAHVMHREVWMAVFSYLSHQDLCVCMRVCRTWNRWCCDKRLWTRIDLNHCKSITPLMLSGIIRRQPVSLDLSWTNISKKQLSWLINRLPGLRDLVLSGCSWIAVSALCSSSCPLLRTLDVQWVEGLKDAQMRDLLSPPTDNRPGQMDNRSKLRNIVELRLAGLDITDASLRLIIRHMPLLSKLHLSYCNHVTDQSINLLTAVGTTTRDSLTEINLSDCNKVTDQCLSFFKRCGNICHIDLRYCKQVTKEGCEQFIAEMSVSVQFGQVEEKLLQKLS
# Sequence (P63208 whole entry, chain 2 of 2): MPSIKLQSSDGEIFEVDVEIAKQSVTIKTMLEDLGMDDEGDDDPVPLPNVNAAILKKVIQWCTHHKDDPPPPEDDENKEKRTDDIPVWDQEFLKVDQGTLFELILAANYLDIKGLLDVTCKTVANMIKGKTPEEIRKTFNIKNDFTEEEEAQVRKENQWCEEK
# Experiment: BLI
row,Kd,Binder
1,43000 nM,B1
2,~31 nM,B2
3,106 nM,B3
4,~240 nM,B4
5,32 nM,B5
